Assay results: patent publication US20250206843A1 (NATIONAL INSTITUTE FOR BIOTECHNOLOGY IN THE NEGEV, published 2025)

Key:
[1] = target: T1, human HER3-His extracellular-domain protein (human, UniProt P21860 20-643); test: SPR, Biacore T200, both orientations
T1 construct: extracellular domain; Bought protein; not shown: His tag
Description: (§1) SPR binding assay—The affinity of Nbs to HER2 or HER3 was determined in two ways by using surface plasmon resonance (SPR) spectroscopy. SPR measurements were performed on a Biacore T200 instrument. In one layout, purified Nb38 (10 μg/ml) and Nb46 (20 μg/ml) were immobilized on a CM5 chip using an amine coupling kit (GE Healthcare, Chicago, IL). The analytes, human HER2-His or HER3-His extracellular-domain proteins (R&D systems, Minneapolis, MN) dissolved in PBST (PBS supplemented with 0.05% Tween-20 v/v), were flown at 30 μl/min, and the chip was regenerated using 2 mM NaOH. In a second layout, the purified human HER2-His or HER3-His extracellular-domain proteins, at 10 μg/ml, were immobilized on a CM5 chip). The analytes, NB46 and NB38 (and NB7 as a negative control), were flown at 30 μl/min in PBST, and the chip was regenerated using 20 mM glycine. Binding was allowed for 180 s and dissociation for 600 s. Curves were fitted using Biacore's evaluation software using a 1:1 ligand:analyte binding model to retrieve association rate constants (ka), dissociation rate constants (kd), and equilibrium dissociation constants (KD, a measurement of affinity).

[2] = target: T2, human HER2-His extracellular-domain protein (human, UniProt P04626 23-652); test: SPR, Biacore T200; average of the two orientations
T2 construct: extracellular domain; Bought protein; also called recombinant HER2; not shown: His tag
Description: as §1

[3] = target: T3, human epidermal growth factor receptor 2 (HER2), on cells (human, UniProt P04626 23-1255); test: flow cytometry titration on SkBr3 HER2+ breast cancer cells
T3 construct: whole, on cells; Target of the flow cytometry and imaging experiments (HEK 293 cells expressing HER2; SkBr3 cells); also called ErbB2; HER2 receptor
Description: (§2) FIGS. 6A-6D. Nb46 binding to HER2 cell-receptors by FACS analysis. […] The fluorescent signal was subtracted from that of cells incubated with the antibody alone and normalized relative to the highest signal (FIG. 6B), n=3. FIG. 6C—Affinity binding of NB46 with SkBr3 cells conducted with and without 1.8 mM Neuregulin-1 (NRG) following 1 hour incubation. Data was fitted with a sigmoidal curve in Excel (dashed lines), n=3.
(§3) Nb46 binding of HER2+ cancer cells—SkBr3 cells were grown to 70-90% confluency in T-75 flasks overnight. The cells were detached by aspirating the medium and washing cells with 10 mL hot PBS before pipetting 5 mL of non-enzymatic cell dissociation solution (Biological Industries, Beit Haemek, Israel) and incubating for 5 minutes at 37° C. […] The cells were Incubated for 1 h at 4° C. on a tubes rotator after which the cells were washed off of unbound Nb; cells were centrifuged at 350 g for 5 minutes, supernatant discarded, and cells resuspend in 900 μL of PBS-FBS, repeatedly for 3 times. After the 3rd centrifugation, the cells were resuspended in 300 μL PBS-FBS containing iFluor488-conjugated anti-camelid VHH (1:1000, Genescript, NJ, USA), and incubated for additional 1 h at 4° C. on a tubes rotator, in the dark. […]

[4] = target: T2, human HER2-His extracellular-domain …; test: SPR, Biacore T200; HER2 immobilized (ligand), Nb46 as analyte
Description: as §1

[5] = target: T2, human HER2-His extracellular-domain …; test: SPR, Biacore T200; Nb46 immobilized (ligand), HER2 as analyte
Description: as §1

[6] = target: T2, human HER2-His extracellular-domain …; test: SPR, Biacore T200; average of the two orientations; average of the two orientations
Description: as §1

[7] = target: T3, human epidermal growth factor receptor …; test: flow cytometry on HEK 293 cells expressing HER2, anti-VHH-488 detection, n=3
Description: as §2

human HER3, on cells [8] = target: T4, human HER3, on cells (human, UniProt P21860 20-1342); test: flow cytometry on HEK 293 cells expressing HER3, anti-VHH-488 detection, n=3
T4 construct: whole, on cells; also called ErbB3

[9] = target: T3, human epidermal growth factor receptor …; test: flow cytometry on SkBr3 cells without Neuregulin-1, anti-VHH-488 detection, n=3
Description: as §2, §3

[10] = target: T2, human HER2-His extracellular-domain …; test: SPR, Biacore T200; HER2-His ECD immobilized, Nb46 as analyte; HER2 immobilized, Nb46 as analyte
Description: as §1

[11] = target: T2, human HER2-His extracellular-domain …; test: SPR, Biacore T200; Nb46 immobilized, HER2-His ECD as analyte; Nb46 immobilized, HER2 as analyte
Description: as §1

[12] = target: T5, HER2 and HER3 co-expressed on cells (HER2/3) (human, UniProt P04626 23-1255; P21860 20-1342); test: flow cytometry on HEK 293 cells expressing HER2 and HER3, anti-VHH-488 detection, n=3
T5 construct: whole, on cells; Dubca camel fibroblasts in the periplasmic ELISA screen; also called HER2/HER3
Description: as §2

[13] = target: T3, human epidermal growth factor receptor …; test: flow cytometry on HEK 293 cells expressing HER2, anti-VHH-488 detection, signal normalised to the highest signal, n=3
Description: as §2

[14] = target: T3, human epidermal growth factor receptor …; test: flow cytometry on SkBr3 cells in the presence of Neuregulin-1 (NRG; the legend prints 1.8 mM), anti-VHH-488 detection, n=3
Description: as §2, §3

[15] = target: T5, HER2 and HER3 co-expressed on cells …; test: flow cytometry on HEK 293 cells expressing HER2 and HER3, anti-VHH-488 detection, signal normalised to the highest signal, n=3
Description: as §2

[16] = target: T3, human epidermal growth factor receptor …; test: flow cytometry on SkBr3 cells, Nb46-AF647 detected with secondary anti-VHH-488 antibody
Description: as §2, §3

[17] = target: T3, human epidermal growth factor receptor …; test: flow cytometry on cells expressing HER2
human HER3, on cells [18] = target: T4, human HER3, on cells; test: flow cytometry on cells expressing HER3
[19] = target: T5, HER2 and HER3 co-expressed on cells …; test: flow cytometry on cells co-expressing HER2 and HER3

T4 sequence (P21860 20-1342): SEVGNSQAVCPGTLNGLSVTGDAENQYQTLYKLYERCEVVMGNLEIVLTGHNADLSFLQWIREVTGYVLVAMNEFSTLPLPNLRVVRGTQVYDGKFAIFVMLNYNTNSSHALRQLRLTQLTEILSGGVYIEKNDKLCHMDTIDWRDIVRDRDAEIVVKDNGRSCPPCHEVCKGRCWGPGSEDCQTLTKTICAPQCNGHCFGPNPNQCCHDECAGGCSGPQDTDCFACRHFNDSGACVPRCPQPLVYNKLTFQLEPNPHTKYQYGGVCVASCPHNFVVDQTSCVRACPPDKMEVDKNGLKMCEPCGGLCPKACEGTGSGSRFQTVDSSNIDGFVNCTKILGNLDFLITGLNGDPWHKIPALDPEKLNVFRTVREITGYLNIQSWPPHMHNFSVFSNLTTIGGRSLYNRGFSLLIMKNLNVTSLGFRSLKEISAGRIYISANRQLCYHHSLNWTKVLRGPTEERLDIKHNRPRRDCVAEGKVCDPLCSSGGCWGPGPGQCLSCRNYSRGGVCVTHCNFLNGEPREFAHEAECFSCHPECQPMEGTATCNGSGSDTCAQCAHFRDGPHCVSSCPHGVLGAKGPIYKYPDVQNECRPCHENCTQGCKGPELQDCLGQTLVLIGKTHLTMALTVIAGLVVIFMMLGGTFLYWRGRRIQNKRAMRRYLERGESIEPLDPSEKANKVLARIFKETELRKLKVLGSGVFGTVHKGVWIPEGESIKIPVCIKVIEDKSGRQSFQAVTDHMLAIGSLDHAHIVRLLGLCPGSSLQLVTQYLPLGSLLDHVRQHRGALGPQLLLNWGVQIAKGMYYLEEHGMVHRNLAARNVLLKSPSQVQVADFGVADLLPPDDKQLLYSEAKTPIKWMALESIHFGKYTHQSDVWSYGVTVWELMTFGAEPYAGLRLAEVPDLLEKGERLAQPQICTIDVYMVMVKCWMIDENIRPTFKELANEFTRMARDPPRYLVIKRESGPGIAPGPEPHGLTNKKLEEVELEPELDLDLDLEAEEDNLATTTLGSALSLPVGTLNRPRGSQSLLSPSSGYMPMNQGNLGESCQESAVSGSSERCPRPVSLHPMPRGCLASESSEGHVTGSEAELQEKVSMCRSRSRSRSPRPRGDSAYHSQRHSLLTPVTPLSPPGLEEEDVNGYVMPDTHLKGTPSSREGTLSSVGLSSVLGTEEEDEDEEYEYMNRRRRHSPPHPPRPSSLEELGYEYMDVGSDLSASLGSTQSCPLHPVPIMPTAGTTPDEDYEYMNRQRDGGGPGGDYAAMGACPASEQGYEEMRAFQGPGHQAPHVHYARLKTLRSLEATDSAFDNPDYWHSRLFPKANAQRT
T1 sequence (P21860 20-643): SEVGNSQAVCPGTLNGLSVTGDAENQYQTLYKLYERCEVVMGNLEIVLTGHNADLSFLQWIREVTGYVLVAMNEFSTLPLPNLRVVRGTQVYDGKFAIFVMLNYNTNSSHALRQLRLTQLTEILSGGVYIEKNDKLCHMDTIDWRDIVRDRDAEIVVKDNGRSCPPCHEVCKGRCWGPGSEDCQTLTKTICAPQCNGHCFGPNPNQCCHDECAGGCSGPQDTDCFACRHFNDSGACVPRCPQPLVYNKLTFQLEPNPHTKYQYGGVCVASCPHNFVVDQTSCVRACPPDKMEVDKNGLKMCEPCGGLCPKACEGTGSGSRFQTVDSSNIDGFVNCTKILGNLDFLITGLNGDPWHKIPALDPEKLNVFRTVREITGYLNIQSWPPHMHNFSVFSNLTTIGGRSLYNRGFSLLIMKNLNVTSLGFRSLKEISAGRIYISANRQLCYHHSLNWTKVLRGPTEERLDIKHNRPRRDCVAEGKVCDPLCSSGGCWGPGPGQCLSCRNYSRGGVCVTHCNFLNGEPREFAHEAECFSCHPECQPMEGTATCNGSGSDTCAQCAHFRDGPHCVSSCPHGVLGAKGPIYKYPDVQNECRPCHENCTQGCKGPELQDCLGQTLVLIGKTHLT

B1: Nb46 (VHH)
VHH: QVQLQESGGGSVQAGGSLRLSCVVSGYFYYDHYYVAWFRQAPGKEREGVALINGRDSDTYYADSVKGRFTISQDSAKNTVYLQMNSLKPEDTAIYYCAANPGEAFTVLPPRVFRNWGQGTQVTVSS
notes: also called N46
For B1, the binding result [1] was “no binding”, the koff [2] was 0.00187 s⁻¹ and the kon [2] was 9.42e+06 M⁻¹ s⁻¹. For the same binder, the Kd [3] was 0.8 nM, the koff [4] was 0.00154 s⁻¹ and the kon [4] was 6.26e+06 M⁻¹ s⁻¹. The koff [5] was 0.00221 s⁻¹, the kon [5] was 1.26e+07 M⁻¹ s⁻¹ and the Kd [6] was 0.21 nM. For the same binder, the “EC50 (read off the curve)” value [7] was ~0.8 nM, the binding result (human HER3, on cells [8]) was “no binding (tested: 25 nM)” and the “EC50 (read off the curve)” value [9] was ~0.9 nM. For the same binder, the Kd [10] was 0.24 nM, the Kd [11] was 0.17 nM and the “EC50 (read off the curve)” value [12] was ~0.9 nM. For the same binder, the “EC50 (read off the curve)” value [13] was ~0.8 nM, the “EC50 (read off the curve)” value [14] was ~0.8 nM and the “EC50 (read off the curve)” value [15] was ~0.8 nM.

B2: Nb46-AF647 (VHH)
VHH: B1 VHH
modifications: Alexa Fluor 647 (NHS ester), approximately 1 mole dye/mole NB; labelled residue not stated
notes: also called N46-Af647
B2: binds [16].

B3: Nb38 (VHH)
VHH: QVQLQESGGGSVQAGGSLKLSCVASGFTRSMGWARQAPGKEREGVVCINNYNIGSGKWYADSVKGRFTISRDNDKNTVSLQMNSLKPEDTAIYYCAASPLYLCDNSSWFAAGFAAGSHVWGQGTQVTVSS
notes: Camel VHH expressed from pMECS (C-terminal HA and 6xHis tags) and purified on Ni-NTA; also called N38
B3: no binding [17]; no binding (human HER3, on cells [18]); no binding [19].
